The values below are quoted from earlier work in patent US10525162B2, “Sophorolipid mediated accelerated gelation of silk fibroin” (COUNCIL OF SCIENTIFIC & INDUSTRIAL RESEARCH, priority 2014, dated 2020).

The conditions of this series: aqueous SF solution without additive, below the isoelectric pH.

With “SF: Silk fibroin, fibrous protein derived from silkworm Bombyx mori”, the gelation time is 10 to 16 h.
